These results are taken from patent US20230357348A1 (AstraZeneca / MedImmune, published 2023).

Starred links: 1 amine or outer side, 2 acyl side, 3 side chain; linkers in the order of their positions; H or OH if unused. Non-standard residues stand in square brackets, D forms with d. Groups on a side chain read outwards from the residue. No end group written: not given here. *: point of attachment. C20 diacid = O=C(O)CCCCCCCCCCCCCCCCCCC(=O)*; C18 diacid = O=C(O)CCCCCCCCCCCCCCCCC(=O)*; γGlu = O=C(O)[C@H](CCC(=O)[*:2])N[*:1]; αMeF = C[C@](N)(Cc1ccccc1)C(=O)O; AEEA = NCCOCCOCC(=O)O; Aib = CC(C)(N)C(=O)O

One assay addresses human GLP-1 receptor (human, UniProt P43220 24-463). The experiment in a line: cell-based or functional assay.
The target of another assay is human glucagon receptor (human, UniProt P47871 26-477). In words: cell-based or functional assay.
Sequence of human glucagon receptor (P47871 26-477): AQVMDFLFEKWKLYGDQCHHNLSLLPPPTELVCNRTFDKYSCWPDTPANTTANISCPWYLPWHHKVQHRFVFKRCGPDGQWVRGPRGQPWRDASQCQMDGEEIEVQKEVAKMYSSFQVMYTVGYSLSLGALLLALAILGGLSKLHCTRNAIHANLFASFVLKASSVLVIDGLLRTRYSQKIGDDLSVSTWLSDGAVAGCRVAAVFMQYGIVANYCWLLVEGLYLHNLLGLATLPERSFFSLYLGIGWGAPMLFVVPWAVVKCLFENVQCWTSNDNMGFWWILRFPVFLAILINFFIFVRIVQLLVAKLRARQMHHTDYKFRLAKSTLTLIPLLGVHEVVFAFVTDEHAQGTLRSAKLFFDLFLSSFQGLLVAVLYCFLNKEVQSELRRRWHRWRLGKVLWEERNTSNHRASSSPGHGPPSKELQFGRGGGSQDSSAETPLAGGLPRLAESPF

B1: Peptide 213 (peptide)
peptide: H[Aib]HGS[αMeF]TSDVSK[αMeF]LDSRAAK([AEEA-AEEA-γGlu-γGlu-C20 diacid])DFVEWIANT-NH2
modifications: N-terminus assumed
SMILES: CC[C@H](C)[C@H](NC(=O)[C@H](Cc1c[nH]c2ccccc12)NC(=O)[C@H](CCC(=O)O)NC(=O)[C@@H](NC(=O)[C@H](Cc1ccccc1)NC(=O)[C@H](CC(=O)O)NC(=O)[C@H](CCCCNC(=O)COCCOCCNC(=O)COCCOCCNC(=O)CC[C@H](NC(=O)CC[C@H](NC(=O)CCCCCCCCCCCCCCCCCCC(=O)O)C(=O)O)C(=O)O)NC(=O)[C@H](C)NC(=O)[C@H](C)NC(=O)[C@H](CCCNC(=N)N)NC(=O)[C@H](CO)NC(=O)[C@H](CC(=O)O)NC(=O)[C@H](CC(C)C)NC(=O)[C@](C)(Cc1ccccc1)NC(=O)[C@H](CCCCN)NC(=O)[C@H](CO)NC(=O)[C@@H](NC(=O)[C@H](CC(=O)O)NC(=O)[C@H](CO)NC(=O)[C@@H](NC(=O)[C@](C)(Cc1ccccc1)NC(=O)[C@H](CO)NC(=O)CNC(=O)[C@H](Cc1c[nH]cn1)NC(=O)C(C)(C)NC(=O)[C@@H](N)Cc1c[nH]cn1)[C@@H](C)O)C(C)C)C(C)C)C(=O)N[C@@H](C)C(=O)N[C@@H](CC(N)=O)C(=O)N[C@H](C(N)=O)[C@@H](C)O
For B1, the “hGLP-1R EC50 (pM), cAMP” value with human GLP-1 receptor was 534 pM. For the same molecule, in the assay with human glucagon receptor, the “hGluc-R EC50 (pM), cAMP” value stood at 141 pM.

B2: Peptide 210 (peptide)
peptide: H[Aib]HGS[αMeF]TSDVSK[αMeF]LDSQAAK([AEEA-AEEA-γGlu-γGlu-C18 diacid])DFVEWIANT-NH2
modifications: N-terminus assumed
SMILES: CC[C@H](C)[C@H](NC(=O)[C@H](Cc1c[nH]c2ccccc12)NC(=O)[C@H](CCC(=O)O)NC(=O)[C@@H](NC(=O)[C@H](Cc1ccccc1)NC(=O)[C@H](CC(=O)O)NC(=O)[C@H](CCCCNC(=O)COCCOCCNC(=O)COCCOCCNC(=O)CC[C@H](NC(=O)CC[C@H](NC(=O)CCCCCCCCCCCCCCCCC(=O)O)C(=O)O)C(=O)O)NC(=O)[C@H](C)NC(=O)[C@H](C)NC(=O)[C@H](CCC(N)=O)NC(=O)[C@H](CO)NC(=O)[C@H](CC(=O)O)NC(=O)[C@H](CC(C)C)NC(=O)[C@](C)(Cc1ccccc1)NC(=O)[C@H](CCCCN)NC(=O)[C@H](CO)NC(=O)[C@@H](NC(=O)[C@H](CC(=O)O)NC(=O)[C@H](CO)NC(=O)[C@@H](NC(=O)[C@](C)(Cc1ccccc1)NC(=O)[C@H](CO)NC(=O)CNC(=O)[C@H](Cc1c[nH]cn1)NC(=O)C(C)(C)NC(=O)[C@@H](N)Cc1c[nH]cn1)[C@@H](C)O)C(C)C)C(C)C)C(=O)N[C@@H](C)C(=O)N[C@@H](CC(N)=O)C(=O)N[C@H](C(N)=O)[C@@H](C)O
As for B2, the “hGLP-1R EC50 (pM), cAMP” value in the assay with human GLP-1 receptor came out at 156 pM. For the same molecule, the “hGluc-R EC50 (pM), cAMP” value with human glucagon receptor was 93.7 pM.

B3: Peptide 215 (peptide)
peptide: H[Aib]HGS[αMeF]TSDVSK[αMeF]LDSRAAK([AEEA-AEEA-γGlu-C20 diacid])D[αMeF]VQWIANT-NH2
modifications: N-terminus assumed
SMILES: CC[C@H](C)[C@H](NC(=O)[C@H](Cc1c[nH]c2ccccc12)NC(=O)[C@H](CCC(N)=O)NC(=O)[C@@H](NC(=O)[C@](C)(Cc1ccccc1)NC(=O)[C@H](CC(=O)O)NC(=O)[C@H](CCCCNC(=O)COCCOCCNC(=O)COCCOCCNC(=O)CC[C@H](NC(=O)CCCCCCCCCCCCCCCCCCC(=O)O)C(=O)O)NC(=O)[C@H](C)NC(=O)[C@H](C)NC(=O)[C@H](CCCNC(=N)N)NC(=O)[C@H](CO)NC(=O)[C@H](CC(=O)O)NC(=O)[C@H](CC(C)C)NC(=O)[C@](C)(Cc1ccccc1)NC(=O)[C@H](CCCCN)NC(=O)[C@H](CO)NC(=O)[C@@H](NC(=O)[C@H](CC(=O)O)NC(=O)[C@H](CO)NC(=O)[C@@H](NC(=O)[C@](C)(Cc1ccccc1)NC(=O)[C@H](CO)NC(=O)CNC(=O)[C@H](Cc1c[nH]cn1)NC(=O)C(C)(C)NC(=O)[C@@H](N)Cc1c[nH]cn1)[C@@H](C)O)C(C)C)C(C)C)C(=O)N[C@@H](C)C(=O)N[C@@H](CC(N)=O)C(=O)N[C@H](C(N)=O)[C@@H](C)O
With B3, the “hGLP-1R EC50 (pM), cAMP” value with human GLP-1 receptor was determined as 7620 pM. Besides, the “hGluc-R EC50 (pM), cAMP” value in the assay with human glucagon receptor is 2610 pM.
